The text below walks through data of patent publication US20240034757A1 (OXFORD UNIVERSITY INNOVATION, published 2024).

As usually defined, the Kd is the equilibrium constant for the complex coming apart. Lower therefore signals tighter binding.

Holding throughout (test): BLI [Cont.) C]
Test [1] concerns the target T1, CXCL1_HUMAN (human, UniProt P09341 35-107).
T1 sequence: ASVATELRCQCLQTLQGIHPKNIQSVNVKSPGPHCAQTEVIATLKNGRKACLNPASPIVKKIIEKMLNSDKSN

Test [2] deals with T2, CXCL7_HUMAN (human, UniProt P02775 59-128).
T2 sequence: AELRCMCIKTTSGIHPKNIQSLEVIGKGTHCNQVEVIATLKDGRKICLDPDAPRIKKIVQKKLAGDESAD

Test [3] has as its target T3, CXCL8_HUMAN (human, UniProt P10145 28-99).
T3 sequence: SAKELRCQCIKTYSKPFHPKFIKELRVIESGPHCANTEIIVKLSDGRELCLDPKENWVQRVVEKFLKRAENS

In test [4] the target is T4, CXCL10_HUMAN (human, UniProt P02778 22-98).
T4 sequence: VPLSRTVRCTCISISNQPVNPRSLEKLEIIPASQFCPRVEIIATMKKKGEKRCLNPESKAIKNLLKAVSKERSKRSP

Test [5] has as its target T5, CXCL11_HUMAN (human, UniProt O14625 22-94).
T5 sequence: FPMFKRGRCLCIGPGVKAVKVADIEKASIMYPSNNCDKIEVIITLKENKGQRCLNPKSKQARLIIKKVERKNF

Test [6] addresses CXCL12_HUMAN (human, UniProt P48061 22-89).
The target in test [7] is T6, CXCL2_HUMAN (human, UniProt P19875 35-107).
T6 sequence: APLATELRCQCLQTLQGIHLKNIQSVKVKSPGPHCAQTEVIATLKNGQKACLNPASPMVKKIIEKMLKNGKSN

The target of test [8] is T7, CXCL5_HUMAN (human, UniProt P42830 41-114).
T7 sequence: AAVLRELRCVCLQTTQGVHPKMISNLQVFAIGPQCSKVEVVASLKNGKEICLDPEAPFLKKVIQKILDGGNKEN

Test [9] concerns the target T8, CXCL6_HUMAN (human, UniProt P80162 38-114).
T8 sequence: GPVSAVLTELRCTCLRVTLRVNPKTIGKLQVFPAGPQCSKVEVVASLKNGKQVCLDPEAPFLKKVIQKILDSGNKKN

Test [10] has as its target T9, CXCL13_HUMAN (human, UniProt O43927 23-109).
T9 sequence: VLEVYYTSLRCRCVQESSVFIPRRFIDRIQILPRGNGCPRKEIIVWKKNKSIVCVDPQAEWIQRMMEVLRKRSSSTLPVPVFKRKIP

Test [11] deals with T10, CXCL14_HUMAN (human, UniProt O95715 35-111).
T10 sequence: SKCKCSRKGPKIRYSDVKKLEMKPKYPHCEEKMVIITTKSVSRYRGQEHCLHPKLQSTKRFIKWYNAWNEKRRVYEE

Chain of CXCL12_HUMAN (P48061 22-89 limits assumed): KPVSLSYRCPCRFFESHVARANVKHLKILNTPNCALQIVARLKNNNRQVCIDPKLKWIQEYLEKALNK

B1: P1243:G4S:P1156 (designed binder)
chain: RNHTEDNSTEYYDYEEARCACPARHLNNTNGTVLKLLGCHYFCNGTLCTAPDGYPCYNLTAQQVRTLTTYPNTSCAVGVCMKGTCVKNGTMEQCFKTPGGGGSADDDNELFTVQYCGMNCTKDEGGTWTGCTGKKEGCKCYHESGKNYGLCLSTEYTDFSQYGNPSDSEIEAAKPKRSDTLSH
For B1, the values for the Kd in test [1] and in test [3] were 17.4 nM and 7.63 nM, respectively. Further, the binding result in [2], in test [4], in [5], in [6], in test [7] and in test [8] was “no binding (tested: 300 nM)” each time. The binding result in test [9], in [10] and in [11] was “no binding (tested: 300 nM)” throughout.
